Data from PMC4046112, “eIF2B is a decameric guanine nucleotide exchange factor with a γ2ε2 tetrameric core” (Nature Communications, 2014).

B1: eIF2Bγ, FLAG-tagged (γ-subunit of yeast eIF2B) (natural protein, S. cerevisiae, UniProt P09032 1-578, looked up)
chain: MSIQAFVFCGKGSNLAPFTQPDFPFQTQNKDSTAATSGDKLNELVNSALDSTVINEFMQHSTRLPKALLPIGNRPMIEYVLDWCDQADFKEISVVAPVDEIELIESGLTSFLSLRKQQFELIYKALSNSNHSHHLQDPKKINFIPSKANSTGESLQKELLPRINGDFVILPCDFVTDIPPQVLVDQFRNRDDNNLAMTIYYKNSLDSSIDKKQQQKQKQQQFFTVYSENEDSERQPILLDVYSQRDVTKTKYLQIRSHLLWNYPNLTVSTKLLNSFIYFCSFELCQLLKLGPQSMSRQASFKDPFTGNQQQQNPPTTDDDEDRNHDDDDDYKPSATSIQPTYFKKKNDLILDPINCNKSLSKVFRDLSRRSWQHSKPREPIGIFILPNETLFIRANNLNAYMDANRFVLKIKSQTMFTKNIQIQSAAIGADAIVDPKCQISAHSNVKMSVLGTQANIGSRCRVAGSLLFPGVHLGDEVILENCIIGPMAKIGSKCKLSNCYIEGHYVVEPKNNFKGETLANVYLDEDEEDELIYDDSVIAGESEIAEETDSDDRSDEDSDDSEYTDEYEYEDDGLFER
notes: eIF2B gamma subunit (GCD1), S. cerevisiae; Bait of all eIF2B complex purifications; also called GCD1-FLAG2-His6; source: S. cerevisiae strains overexpressing eIF2B subunits, purified (anti-FLAG resin, FLAG peptide elution); not shown: FLAG2, C-terminal, kept

Legend:
[1] = biological target: yeast four subunit complex lacking the α-subunit, eIF2Bβδγε (octamer) (S. cerevisiae) (UniProt P32502); experiment: native MS; FLAG-purified four-subunit eIF2Bβδγε in ammonium acetate, without and with 10% acetonitrile; octamer = two copies of each of four subunits
[2] = biological target: T1, eIF2Bγ in the eIF2Bγε core complex (γ2ε2) (Saccharomyces cerevisiae, UniProt P09032); experiment: photo-cross-linking and native nano-electrospray MS; type: binding; details: 10 mM 6-Thio-GTP; UV 365 nm 5 min on ice; 500 mM ammonium acetate; covalent (photo-cross-link); adduct on γ-subunit
T1 construct: gene GCD1; γε core co-overexpressed in yeast, γ-subunit C-terminally FLAG-tagged (GCD1-FLAG2-His6), anti-FLAG purified; GTP adduct seen on dissociated γ; with Translation initiation factor eIF2B subunit epsilon
T1 sequence (P09032 1-578): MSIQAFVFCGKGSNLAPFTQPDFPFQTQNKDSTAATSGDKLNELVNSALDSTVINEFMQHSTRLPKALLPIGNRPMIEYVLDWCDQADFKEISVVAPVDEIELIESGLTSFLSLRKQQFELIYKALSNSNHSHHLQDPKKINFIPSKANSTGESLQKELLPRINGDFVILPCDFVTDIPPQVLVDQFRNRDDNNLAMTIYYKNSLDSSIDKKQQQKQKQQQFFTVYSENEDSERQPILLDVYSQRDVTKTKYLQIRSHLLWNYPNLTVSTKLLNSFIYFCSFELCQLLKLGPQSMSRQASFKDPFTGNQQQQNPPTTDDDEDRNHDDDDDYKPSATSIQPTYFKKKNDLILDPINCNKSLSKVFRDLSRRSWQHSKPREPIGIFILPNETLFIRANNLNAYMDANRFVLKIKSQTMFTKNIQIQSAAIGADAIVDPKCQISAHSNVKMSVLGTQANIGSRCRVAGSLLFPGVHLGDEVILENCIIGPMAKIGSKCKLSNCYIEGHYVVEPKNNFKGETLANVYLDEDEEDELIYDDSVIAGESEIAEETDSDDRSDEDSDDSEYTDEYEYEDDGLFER
T1 sequence (P32501 1-712 partner): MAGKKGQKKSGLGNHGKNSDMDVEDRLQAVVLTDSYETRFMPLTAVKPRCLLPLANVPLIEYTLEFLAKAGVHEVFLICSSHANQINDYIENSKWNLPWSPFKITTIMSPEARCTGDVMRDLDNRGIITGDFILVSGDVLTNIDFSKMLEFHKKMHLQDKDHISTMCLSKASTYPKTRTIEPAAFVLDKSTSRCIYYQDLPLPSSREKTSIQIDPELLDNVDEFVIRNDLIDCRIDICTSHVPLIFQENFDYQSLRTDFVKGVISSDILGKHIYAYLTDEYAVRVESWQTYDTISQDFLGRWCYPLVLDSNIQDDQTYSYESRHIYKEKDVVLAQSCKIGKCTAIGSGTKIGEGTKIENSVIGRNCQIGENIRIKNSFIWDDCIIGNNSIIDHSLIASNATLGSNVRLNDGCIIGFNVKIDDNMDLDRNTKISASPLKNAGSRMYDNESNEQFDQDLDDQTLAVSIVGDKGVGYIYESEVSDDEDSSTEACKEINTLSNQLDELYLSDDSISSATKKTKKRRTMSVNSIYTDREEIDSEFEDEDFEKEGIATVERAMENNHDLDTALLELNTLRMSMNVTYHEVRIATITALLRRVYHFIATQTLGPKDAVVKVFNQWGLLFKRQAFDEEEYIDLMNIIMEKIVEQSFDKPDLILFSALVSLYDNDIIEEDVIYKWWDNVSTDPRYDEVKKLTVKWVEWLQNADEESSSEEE

[3] = biological target: T2, eIF2Bε (ε-subunit of yeast eIF2B, untagged) (S. cerevisiae, UniProt P32501 1-712); experiment: native MS; FLAG-purified four-subunit eIF2Bβδγε in ammonium acetate, without and with 10% acetonitrile; octamer = two copies of each of four subunits; details: both partners purified
T2 construct: eIF2B epsilon subunit (GCD6), S. cerevisiae; Subunit of the purified eIF2B complexes, written alone for the subunit pairs; also called eIF2B ε-subunit; ε/GCD6
T2 sequence (looked up): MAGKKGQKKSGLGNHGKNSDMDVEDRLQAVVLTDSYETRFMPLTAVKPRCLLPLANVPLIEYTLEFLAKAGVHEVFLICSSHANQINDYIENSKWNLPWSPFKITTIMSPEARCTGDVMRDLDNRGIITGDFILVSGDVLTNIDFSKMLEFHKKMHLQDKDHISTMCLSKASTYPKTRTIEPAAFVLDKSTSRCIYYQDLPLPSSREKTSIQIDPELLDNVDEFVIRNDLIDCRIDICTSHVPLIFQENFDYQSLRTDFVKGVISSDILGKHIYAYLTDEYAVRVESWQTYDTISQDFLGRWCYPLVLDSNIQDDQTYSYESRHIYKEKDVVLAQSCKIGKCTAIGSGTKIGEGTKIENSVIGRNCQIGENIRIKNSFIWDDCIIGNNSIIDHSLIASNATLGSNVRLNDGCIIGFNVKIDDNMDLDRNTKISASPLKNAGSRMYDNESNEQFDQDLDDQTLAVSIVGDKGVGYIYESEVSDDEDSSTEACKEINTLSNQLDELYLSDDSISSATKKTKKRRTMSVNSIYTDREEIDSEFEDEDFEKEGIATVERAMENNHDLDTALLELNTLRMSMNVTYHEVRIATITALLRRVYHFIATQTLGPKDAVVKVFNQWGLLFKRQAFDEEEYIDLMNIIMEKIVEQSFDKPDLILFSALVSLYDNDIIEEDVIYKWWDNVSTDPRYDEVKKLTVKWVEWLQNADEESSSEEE

[4] = biological target: T3, eIF2Bδ (δ-subunit of yeast eIF2B) (S. cerevisiae, UniProt P12754 1-651); experiment: as above; details: both partners purified
T3 construct: eIF2B delta subunit (GCD2), S. cerevisiae; Subunit of the purified eIF2B complexes, written alone for the subunit pairs; also called eIF2B δ-subunit; δ/Gcd2
T3 sequence (looked up): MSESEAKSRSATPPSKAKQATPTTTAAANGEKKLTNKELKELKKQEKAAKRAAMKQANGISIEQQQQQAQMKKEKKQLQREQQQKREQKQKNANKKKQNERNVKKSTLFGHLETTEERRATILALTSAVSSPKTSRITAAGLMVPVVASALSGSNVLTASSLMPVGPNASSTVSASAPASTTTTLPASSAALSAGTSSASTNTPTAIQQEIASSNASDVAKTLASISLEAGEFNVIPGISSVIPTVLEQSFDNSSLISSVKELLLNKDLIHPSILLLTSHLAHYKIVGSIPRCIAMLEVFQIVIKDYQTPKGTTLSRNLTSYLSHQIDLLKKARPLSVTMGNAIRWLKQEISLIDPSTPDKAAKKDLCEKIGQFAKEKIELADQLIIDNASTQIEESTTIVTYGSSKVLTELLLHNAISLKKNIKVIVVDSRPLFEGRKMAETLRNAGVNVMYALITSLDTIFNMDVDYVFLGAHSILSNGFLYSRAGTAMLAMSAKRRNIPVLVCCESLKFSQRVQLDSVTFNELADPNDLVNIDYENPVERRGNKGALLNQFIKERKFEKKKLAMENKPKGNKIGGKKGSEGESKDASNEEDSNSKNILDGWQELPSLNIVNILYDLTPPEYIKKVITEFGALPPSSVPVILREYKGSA

[5] = biological target: the molecule itself; experiment: as above
[6] = biological target: eIF2α phosphorylated at Ser51 (subunit of phosphorylated eIF2) (S. cerevisiae) (UniProt P20459); experiment: label-free quantitative proteomics (iBAQ) of the purified complex; eIF2-eIF2B complex purified after phosphorylation of eIF2, trypsin digest, nanoLC-MS/MS, iBAQ intensities compared; eIF2B subunits relative to FLAG-tagged γ (set to 1), eIF2 subunits relative to α
[7] = biological target: T4, eIF2Bα (α-subunit of yeast eIF2B) (S. cerevisiae, UniProt P14741 1-305); experiment: cross-linking; BS3-d0/d4 (1:1) added to purified complexes (eIF2:eIF2B, four-subunit eIF2B, eIF2Bγε core), 30 min at 26 °C, trypsin digest, nanoLC-MS/MS, MassMatrix search; the text does not tell which cross-link came from which complex; details: both partners purified
T4 construct: eIF2B alpha subunit (GCN3), S. cerevisiae; Subunit of the purified eIF2B complex, written alone for the subunit pairs; also called eIF2B α-subunit; GCN3
T4 sequence (looked up): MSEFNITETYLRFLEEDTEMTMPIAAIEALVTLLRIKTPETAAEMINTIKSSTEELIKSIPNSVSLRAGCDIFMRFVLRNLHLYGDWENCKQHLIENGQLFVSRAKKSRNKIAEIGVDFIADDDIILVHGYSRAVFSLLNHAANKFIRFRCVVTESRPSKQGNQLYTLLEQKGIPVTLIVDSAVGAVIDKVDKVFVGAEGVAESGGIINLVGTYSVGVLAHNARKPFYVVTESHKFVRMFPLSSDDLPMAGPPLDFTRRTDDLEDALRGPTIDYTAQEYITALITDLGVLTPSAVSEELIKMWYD

[8] = biological target: B1; experiment: as above; details: both partners purified
[9] = biological target: T3, eIF2Bδ (δ-subunit of yeast eIF2B); experiment: as above; details: both partners purified

yeast four subunit complex lacking the α-subunit, eIF2Bβδγε (octamer), P32502 1-381; P12754 1-651; P09032 1-578; P32501 1-712
stoichiometry N [1]: 8

Nc1nc(=S)c2ncn([C@@H]3O[C@H](COP(=O)(O)OP(=O)(O)OP(=O)(O)O)[C@@H](O)[C@H]3O)c2[nH]1 [6-Thio-GTP]
photo-cross-linking and native nano-electrospray MS [2]: After incubation with 6-Thio-GTP and ultraviolet irradiation, the intensity of the GTP-bound population

B1
binding result [3]: binds
binding result [4]: binds

B2: eIF2Bγε core complex (complex, S. cerevisiae)
chain 1: MSIQAFVFCGKGSNLAPFTQPDFPFQTQNKDSTAATSGDKLNELVNSALDSTVINEFMQHSTRLPKALLPIGNRPMIEYVLDWCDQADFKEISVVAPVDEIELIESGLTSFLSLRKQQFELIYKALSNSNHSHHLQDPKKINFIPSKANSTGESLQKELLPRINGDFVILPCDFVTDIPPQVLVDQFRNRDDNNLAMTIYYKNSLDSSIDKKQQQKQKQQQFFTVYSENEDSERQPILLDVYSQRDVTKTKYLQIRSHLLWNYPNLTVSTKLLNSFIYFCSFELCQLLKLGPQSMSRQASFKDPFTGNQQQQNPPTTDDDEDRNHDDDDDYKPSATSIQPTYFKKKNDLILDPINCNKSLSKVFRDLSRRSWQHSKPREPIGIFILPNETLFIRANNLNAYMDANRFVLKIKSQTMFTKNIQIQSAAIGADAIVDPKCQISAHSNVKMSVLGTQANIGSRCRVAGSLLFPGVHLGDEVILENCIIGPMAKIGSKCKLSNCYIEGHYVVEPKNNFKGETLANVYLDEDEEDELIYDDSVIAGESEIAEETDSDDRSDEDSDDSEYTDEYEYEDDGLFER
chain 2: MAGKKGQKKSGLGNHGKNSDMDVEDRLQAVVLTDSYETRFMPLTAVKPRCLLPLANVPLIEYTLEFLAKAGVHEVFLICSSHANQINDYIENSKWNLPWSPFKITTIMSPEARCTGDVMRDLDNRGIITGDFILVSGDVLTNIDFSKMLEFHKKMHLQDKDHISTMCLSKASTYPKTRTIEPAAFVLDKSTSRCIYYQDLPLPSSREKTSIQIDPELLDNVDEFVIRNDLIDCRIDICTSHVPLIFQENFDYQSLRTDFVKGVISSDILGKHIYAYLTDEYAVRVESWQTYDTISQDFLGRWCYPLVLDSNIQDDQTYSYESRHIYKEKDVVLAQSCKIGKCTAIGSGTKIGEGTKIENSVIGRNCQIGENIRIKNSFIWDDCIIGNNSIIDHSLIASNATLGSNVRLNDGCIIGFNVKIDDNMDLDRNTKISASPLKNAGSRMYDNESNEQFDQDLDDQTLAVSIVGDKGVGYIYESEVSDDEDSSTEACKEINTLSNQLDELYLSDDSISSATKKTKKRRTMSVNSIYTDREEIDSEFEDEDFEKEGIATVERAMENNHDLDTALLELNTLRMSMNVTYHEVRIATITALLRRVYHFIATQTLGPKDAVVKVFNQWGLLFKRQAFDEEEYIDLMNIIMEKIVEQSFDKPDLILFSALVSLYDNDIIEEDVIYKWWDNVSTDPRYDEVKKLTVKWVEWLQNADEESSSEEE
notes: eIF2B gamma subunit (GCD1), S. cerevisiae; eIF2B epsilon subunit (GCD6), S. cerevisiae; Seen as γε dimer (predominant) and γ2ε2 tetramer; the self row stands for two γε dimers joined in the tetramer; also called γε dimer; γ2ε2 tetramer; source: S. cerevisiae, purified by the FLAG-tagged γ-subunit (anti-FLAG resin); also formed from eIF2Bβδγε on adding 10% acetonitrile; not shown: FLAG2, …
stoichiometry N [5]: 4

B3: eIF2β (β-subunit of yeast eIF2) (natural protein, S. cerevisiae, UniProt P09064 1-285, looked up)
chain: MSSDLAAELGFDPALKKKKKTKKVIPDDFDAAVNGKENGSGDDLFAGLKKKKKKSKSVSADAEAEKEPTDDIAEALGELSLKKKKKKTKDSSVDAFEKELAKAGLDNVDAESKEGTPSANSSIQQEVGLPYSELLSRFFNILRTNNPELAGDRSGPKFRIPPPVCLRDGKKTIFSNIQDIAEKLHRSPEHLIQYLFAELGTSGSVDGQKRLVIKGKFQSKQMENVLRRYILEYVTCKTCKSINTELKREQSNRLFFMVCKSCGSTRSVSSIKTGFQATVGKRRRM
notes: eIF2 beta subunit (SUI3), S. cerevisiae; Subunit of the purified eIF2 complex, written alone for the subunit pairs; also called eIF2 β-subunit; SUI3
stoichiometry N [6]: 1.08
binding result [7]: binds
binding result [8]: binds
binding result [9]: binds
